Measurements as given in PMC9482650, “Quantitative fragmentomics allow affinity mapping of interactomes” (Nature Communications, 2022).

T1: SNTB1, Q13884
T1 sequence (Q13884 107-205, limits assumed, looked up): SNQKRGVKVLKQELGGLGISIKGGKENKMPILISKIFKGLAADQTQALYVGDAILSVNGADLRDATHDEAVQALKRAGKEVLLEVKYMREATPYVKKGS

T2: MPDZ_10, O75970
T2 sequence (O75970 1624-1722, limits assumed, looked up): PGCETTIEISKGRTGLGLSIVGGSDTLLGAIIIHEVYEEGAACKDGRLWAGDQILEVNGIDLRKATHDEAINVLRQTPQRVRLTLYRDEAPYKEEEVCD

T3: PDZRN3_1, Q9UPQ7
T3 sequence (Q9UPQ7 244-349, limits assumed, looked up): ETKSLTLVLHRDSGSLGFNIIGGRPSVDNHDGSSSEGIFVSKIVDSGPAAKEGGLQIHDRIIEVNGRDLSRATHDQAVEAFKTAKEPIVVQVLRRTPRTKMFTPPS

T4: RHPN1, Q8TCX5
T4 sequence (Q8TCX5 508-602, limits assumed, looked up): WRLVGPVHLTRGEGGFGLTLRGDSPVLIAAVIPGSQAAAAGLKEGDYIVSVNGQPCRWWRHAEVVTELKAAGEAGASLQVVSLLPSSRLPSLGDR

T5: ARHGAP21, Q5T5U3
T5 sequence (Q5T5U3 45-169, limits assumed, looked up): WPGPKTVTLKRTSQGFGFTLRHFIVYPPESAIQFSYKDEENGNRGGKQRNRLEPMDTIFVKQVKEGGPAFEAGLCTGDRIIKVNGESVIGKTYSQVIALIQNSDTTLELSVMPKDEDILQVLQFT

T6: LRRC7, Q96NW7
T6 sequence (Q96NW7 1440-1537, limits assumed, looked up): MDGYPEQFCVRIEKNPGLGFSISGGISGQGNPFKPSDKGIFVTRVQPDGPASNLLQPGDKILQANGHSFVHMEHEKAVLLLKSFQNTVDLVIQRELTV

T7: MPP7, Q5T2T1
T7 sequence (Q5T2T1 134-230, limits assumed, looked up): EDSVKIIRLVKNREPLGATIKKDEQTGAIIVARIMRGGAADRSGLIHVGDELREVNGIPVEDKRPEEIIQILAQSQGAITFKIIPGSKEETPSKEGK

T8: DFNB31_2, Q9P202
T8 sequence (Q9P202 274-371, limits assumed, looked up): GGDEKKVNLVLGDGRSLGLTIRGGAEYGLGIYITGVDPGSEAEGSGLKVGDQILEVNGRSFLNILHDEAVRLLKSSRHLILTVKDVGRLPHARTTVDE

T9: FRMPD1, Q5SYB0
T9 sequence (Q5SYB0 52-145, limits assumed, looked up): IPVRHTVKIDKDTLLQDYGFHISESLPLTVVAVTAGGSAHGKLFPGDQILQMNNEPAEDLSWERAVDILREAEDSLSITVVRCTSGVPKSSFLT

T10: MPDZ_5, O75970
T10 sequence (O75970 695-796, limits assumed, looked up): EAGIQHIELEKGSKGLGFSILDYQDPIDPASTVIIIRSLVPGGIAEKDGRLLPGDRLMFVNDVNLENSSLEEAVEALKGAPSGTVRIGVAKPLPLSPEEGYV

T11: HTRA3, P83110
T11 sequence (P83110 354-453, limits assumed, looked up): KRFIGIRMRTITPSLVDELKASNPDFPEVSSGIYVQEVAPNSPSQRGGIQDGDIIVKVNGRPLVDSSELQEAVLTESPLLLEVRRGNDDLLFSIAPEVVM


What follows are binders tested against GORASP2, Q9H8Y8 (assay: holdup assay). Settings: plain residues with an end cap or a label only (N-terminal biotin on a linker: ado-ado).
Set-up: key: below the threshold = too weak to quantify, mostly under pKd 3.1 to 4
Work on THHRKIHTRV [ZNF599, Q96NL3] yielded a pKd of 4.25.

The binders below were run against NHERF4_1, Q86UT5-2 (assay: holdup assay). Settings: plain residues with an end cap or a label only (N-terminal biotin on a linker: ado-ado).
NHERF4_1, Q86UT5-2, sequence (Q86UT5 other isoform, or with tags, fused parts or gaps): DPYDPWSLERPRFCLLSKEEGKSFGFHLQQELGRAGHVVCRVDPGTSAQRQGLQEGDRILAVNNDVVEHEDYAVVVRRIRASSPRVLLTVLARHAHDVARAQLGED
Set-up: key: below the threshold = too weak to quantify, mostly under pKd 3.1 to 4
Work on THHRKIHTRV [ZNF599, Q96NL3] yielded a pKd of 3.72.

Each binder was assayed against T1, SNTB1, Q13884 (assay: holdup assay). Settings: plain residues with an end cap or a label only (N-terminal biotin on a linker: ado-ado).
Set-up: key: below the threshold = too weak to quantify, mostly under pKd 3.1 to 4
Work on THHRKIHTRV [ZNF599, Q96NL3] yielded a pKd of 4.36.

Each binder was assayed against GRIP2_6, Q9C0E4 (assay: holdup assay). Settings: plain residues with an end cap or a label only (N-terminal biotin on a linker: ado-ado).
GRIP2_6, Q9C0E4, sequence (Q9C0E4 648-740): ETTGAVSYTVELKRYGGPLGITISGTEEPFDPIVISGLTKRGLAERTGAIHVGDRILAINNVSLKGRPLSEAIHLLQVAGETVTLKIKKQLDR
Set-up: key: below the threshold = too weak to quantify, mostly under pKd 3.1 to 4
Binder THHRKIHTRV [ZNF599, Q96NL3] has a pKd of 3.86.

The binders below were run against T2, MPDZ_10, O75970 (assay: holdup assay). Settings: plain residues with an end cap or a label only (N-terminal biotin on a linker: ado-ado).
Set-up: key: below the threshold = too weak to quantify, mostly under pKd 3.1 to 4
With THHRKIHTRV [ZNF599, Q96NL3] the pKd was 3.92.

These binders were tested against DLG4_1, P78352 (assay: holdup assay). Settings: plain residues with an end cap or a label only (N-terminal biotin on a linker: ado-ado).
DLG4_1, P78352, sequence (P78352 62-152): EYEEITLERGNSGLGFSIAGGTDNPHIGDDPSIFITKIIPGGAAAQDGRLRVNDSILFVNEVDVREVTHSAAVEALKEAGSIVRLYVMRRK
Set-up: key: below the threshold = too weak to quantify, mostly under pKd 3.1 to 4
THHRKIHTRV [ZNF599, Q96NL3] gave a pKd of 4.98.

These binders were tested against T3, PDZRN3_1, Q9UPQ7 (assay: holdup assay). Settings: plain residues with an end cap or a label only (N-terminal biotin on a linker: ado-ado).
Set-up: key: below the threshold = too weak to quantify, mostly under pKd 3.1 to 4
Work on THHRKIHTRV [ZNF599, Q96NL3] yielded a pKd of 3.75.

The binders below were run against T4, RHPN1, Q8TCX5 (assay: holdup assay). Settings: plain residues with an end cap or a label only (N-terminal biotin on a linker: ado-ado).
Set-up: key: below the threshold = too weak to quantify, mostly under pKd 3.1 to 4
For THHRKIHTRV [ZNF599, Q96NL3], the pKd was 4.

These binders were tested against T5, ARHGAP21, Q5T5U3 (assay: holdup assay). Settings: plain residues with an end cap or a label only (N-terminal biotin on a linker: ado-ado).
Set-up: key: below the threshold = too weak to quantify, mostly under pKd 3.1 to 4
With THHRKIHTRV [ZNF599, Q96NL3] the pKd was 4.01.

Each binder was assayed against T6, LRRC7, Q96NW7 (assay: holdup assay). Settings: plain residues with an end cap or a label only (N-terminal biotin on a linker: ado-ado).
Set-up: key: below the threshold = too weak to quantify, mostly under pKd 3.1 to 4
In the case of THHRKIHTRV [ZNF599, Q96NL3], the pKd is reported as “below the threshold”.

What follows are binders tested against DLG2_3, Q15700 (assay: holdup assay). Settings: plain residues with an end cap or a label only (N-terminal biotin on a linker: ado-ado).
Set-up: key: below the threshold = too weak to quantify, mostly under pKd 3.1 to 4
In the case of THHRKIHTRV [ZNF599, Q96NL3], the pKd is reported as 4.41.

What follows are binders tested against PDLIM1, O00151 (assay: holdup assay). Settings: plain residues with an end cap or a label only (N-terminal biotin on a linker: ado-ado).
PDLIM1, O00151, sequence (O00151 1-87): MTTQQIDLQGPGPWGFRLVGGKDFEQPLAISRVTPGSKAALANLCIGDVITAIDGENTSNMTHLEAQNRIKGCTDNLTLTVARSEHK
Set-up: key: below the threshold = too weak to quantify, mostly under pKd 3.1 to 4
For THHRKIHTRV [ZNF599, Q96NL3], the pKd was “below the threshold”.

These binders were tested against T7, MPP7, Q5T2T1 (assay: holdup assay). Settings: plain residues with an end cap or a label only (N-terminal biotin on a linker: ado-ado).
Set-up: key: below the threshold = too weak to quantify, mostly under pKd 3.1 to 4
For THHRKIHTRV [ZNF599, Q96NL3], the pKd was “below the threshold”.

What follows are binders tested against SCRIB_1, Q14160 (assay: holdup assay). Settings: plain residues with an end cap or a label only (N-terminal biotin on a linker: ado-ado).
SCRIB_1, Q14160, sequence (Q14160 718-814): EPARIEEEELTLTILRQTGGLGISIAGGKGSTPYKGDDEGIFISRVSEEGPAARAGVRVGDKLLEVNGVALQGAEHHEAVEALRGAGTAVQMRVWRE
Set-up: key: below the threshold = too weak to quantify, mostly under pKd 3.1 to 4
Work on THHRKIHTRV [ZNF599, Q96NL3] yielded a pKd of 3.98.

Each binder was assayed against T8, DFNB31_2, Q9P202 (assay: holdup assay). Settings: plain residues with an end cap or a label only (N-terminal biotin on a linker: ado-ado).
Set-up: key: below the threshold = too weak to quantify, mostly under pKd 3.1 to 4
With THHRKIHTRV [ZNF599, Q96NL3] the pKd was “below the threshold”.

These binders were tested against T9, FRMPD1, Q5SYB0 (assay: holdup assay). Settings: plain residues with an end cap or a label only (N-terminal biotin on a linker: ado-ado).
Set-up: key: below the threshold = too weak to quantify, mostly under pKd 3.1 to 4
In the case of THHRKIHTRV [ZNF599, Q96NL3], the pKd is reported as “below the threshold”.

These binders were tested against T10, MPDZ_5, O75970 (assay: holdup assay). Settings: plain residues with an end cap or a label only (N-terminal biotin on a linker: ado-ado).
Set-up: key: below the threshold = too weak to quantify, mostly under pKd 3.1 to 4
Work on THHRKIHTRV [ZNF599, Q96NL3] yielded a pKd of 3.55.

The binders below were run against Inadl_4, Q8NI35 (assay: holdup assay). Settings: plain residues with an end cap or a label only (N-terminal biotin on a linker: ado-ado).
Inadl_4, Q8NI35, sequence (Q8NI35 547-651): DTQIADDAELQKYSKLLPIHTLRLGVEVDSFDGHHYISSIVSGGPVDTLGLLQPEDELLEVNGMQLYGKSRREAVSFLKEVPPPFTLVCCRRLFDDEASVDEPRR
Set-up: key: below the threshold = too weak to quantify, mostly under pKd 3.1 to 4
Binder THHRKIHTRV [ZNF599, Q96NL3] has a pKd of 3.57.

Each binder was assayed against Inadl_1, Q8NI35 (assay: holdup assay). Settings: plain residues with an end cap or a label only (N-terminal biotin on a linker: ado-ado).
Inadl_1, Q8NI35, sequence (Q8NI35 113-229): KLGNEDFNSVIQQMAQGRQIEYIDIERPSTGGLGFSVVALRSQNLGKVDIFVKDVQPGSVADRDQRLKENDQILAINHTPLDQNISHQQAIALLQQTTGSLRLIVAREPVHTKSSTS
Set-up: key: below the threshold = too weak to quantify, mostly under pKd 3.1 to 4
In the case of THHRKIHTRV [ZNF599, Q96NL3], the pKd is reported as “below the threshold”.

These binders were tested against Inadl_3, Q8NI35 (assay: holdup assay). Settings: plain residues with an end cap or a label only (N-terminal biotin on a linker: ado-ado).
Inadl_3, Q8NI35, sequence (Q8NI35 359-469): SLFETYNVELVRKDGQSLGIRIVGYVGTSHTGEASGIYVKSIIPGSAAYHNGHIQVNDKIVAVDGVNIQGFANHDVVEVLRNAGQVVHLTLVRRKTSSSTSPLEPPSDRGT
Set-up: key: below the threshold = too weak to quantify, mostly under pKd 3.1 to 4
In the case of THHRKIHTRV [ZNF599, Q96NL3], the pKd is reported as “below the threshold”.

These binders were tested against T11, HTRA3, P83110 (assay: holdup assay). Settings: plain residues with an end cap or a label only (N-terminal biotin on a linker: ado-ado).
Set-up: key: below the threshold = too weak to quantify, mostly under pKd 3.1 to 4
THHRKIHTRV [ZNF599, Q96NL3] was tested, and the pKd was “below the threshold”.

What follows are binders tested against SCRIB_3, Q14160 (assay: holdup assay). Settings: plain residues with an end cap or a label only (N-terminal biotin on a linker: ado-ado).
SCRIB_3, Q14160, sequence (Q14160 999-1103): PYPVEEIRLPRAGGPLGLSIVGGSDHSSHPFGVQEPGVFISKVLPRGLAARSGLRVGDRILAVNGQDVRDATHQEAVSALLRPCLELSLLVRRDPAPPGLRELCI
Set-up: key: below the threshold = too weak to quantify, mostly under pKd 3.1 to 4
THHRKIHTRV [ZNF599, Q96NL3] showed a pKd of 3.75.

These binders were tested against FRMPD2_2, Q68DX3 (assay: holdup assay). Settings: plain residues with an end cap or a label only (N-terminal biotin on a linker: ado-ado).
FRMPD2_2, Q68DX3, sequence (Q68DX3 944-1038): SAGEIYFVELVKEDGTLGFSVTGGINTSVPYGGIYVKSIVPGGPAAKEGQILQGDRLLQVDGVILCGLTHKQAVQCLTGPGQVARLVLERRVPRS
Set-up: key: below the threshold = too weak to quantify, mostly under pKd 3.1 to 4
THHRKIHTRV [ZNF599, Q96NL3] was tested, and the pKd was 3.52.

These binders were tested against TJP1_2, Q07157 (assay: holdup assay). Settings: plain residues with an end cap or a label only (N-terminal biotin on a linker: ado-ado).
TJP1_2, Q07157, sequence (Q07157 181-274): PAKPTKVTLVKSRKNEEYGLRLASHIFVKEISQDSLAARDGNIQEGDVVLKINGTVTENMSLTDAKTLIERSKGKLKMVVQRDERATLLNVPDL
Set-up: key: below the threshold = too weak to quantify, mostly under pKd 3.1 to 4
THHRKIHTRV [ZNF599, Q96NL3] showed a pKd of 3.62.

Each binder was assayed against NHERF4_4, Q86UT5 (assay: holdup assay). Settings: plain residues with an end cap or a label only (N-terminal biotin on a linker: ado-ado).
NHERF4_4, Q86UT5, sequence (Q86UT5 464-550): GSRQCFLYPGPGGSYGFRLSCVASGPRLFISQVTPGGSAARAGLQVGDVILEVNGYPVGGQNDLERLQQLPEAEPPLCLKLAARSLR
Set-up: key: below the threshold = too weak to quantify, mostly under pKd 3.1 to 4
THHRKIHTRV [ZNF599, Q96NL3] was tested, and the pKd was “below the threshold”.

These binders were tested against GORASP1, Q9BQQ3 (assay: holdup assay). Settings: plain residues with an end cap or a label only (N-terminal biotin on a linker: ado-ado).
GORASP1, Q9BQQ3, sequence (Q9BQQ3 1-208): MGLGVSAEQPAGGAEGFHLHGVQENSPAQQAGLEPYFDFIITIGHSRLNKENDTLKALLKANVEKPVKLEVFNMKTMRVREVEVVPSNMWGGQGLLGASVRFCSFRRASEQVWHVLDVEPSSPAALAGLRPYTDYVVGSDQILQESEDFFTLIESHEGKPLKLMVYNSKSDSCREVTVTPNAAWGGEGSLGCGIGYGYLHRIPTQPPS
Set-up: key: below the threshold = too weak to quantify, mostly under pKd 3.1 to 4
Binder THHRKIHTRV [ZNF599, Q96NL3] has a pKd of 3.87.

The binders below were run against IL16_1, Q14005 (assay: holdup assay). Settings: plain residues with an end cap or a label only (N-terminal biotin on a linker: ado-ado).
IL16_1, Q14005, sequence (Q14005 210-306): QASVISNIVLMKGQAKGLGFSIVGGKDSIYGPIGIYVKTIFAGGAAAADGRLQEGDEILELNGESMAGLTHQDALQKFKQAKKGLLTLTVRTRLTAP
Set-up: key: below the threshold = too weak to quantify, mostly under pKd 3.1 to 4
For THHRKIHTRV [ZNF599, Q96NL3], the pKd was 3.48.
